Literature values as cited in paper PMC12704549.

Target: pro-IL-18 (Homo sapiens) (UniProt Q14116)
Sequence (Q14116 37-193): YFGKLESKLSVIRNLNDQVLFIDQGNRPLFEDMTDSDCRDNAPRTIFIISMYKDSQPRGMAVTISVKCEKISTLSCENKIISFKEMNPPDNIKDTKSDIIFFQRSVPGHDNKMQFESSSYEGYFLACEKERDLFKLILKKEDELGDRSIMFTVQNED

caspase-4, sequence (P49662 290-377): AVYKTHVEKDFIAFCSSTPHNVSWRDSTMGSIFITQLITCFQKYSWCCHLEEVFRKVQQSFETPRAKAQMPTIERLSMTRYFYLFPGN

Kd: 0.29 µM
Substance: caspase-4 (from UniProt P49662)
